T1: NgR1 (Nogo receptor; full-length, N-terminally myc-tagged rat NgR) (rat, UniProt Q99M75 26-447)
T1 construct: GPI-linked; Expressed on COS-7 cells, in HEK293T cells (co-IP) and by adenovirus in rat DRG neurons; the tag is stated only for the COS-7 construct; also called myc-NgR[Pro26-Cys473]
T1 sequence: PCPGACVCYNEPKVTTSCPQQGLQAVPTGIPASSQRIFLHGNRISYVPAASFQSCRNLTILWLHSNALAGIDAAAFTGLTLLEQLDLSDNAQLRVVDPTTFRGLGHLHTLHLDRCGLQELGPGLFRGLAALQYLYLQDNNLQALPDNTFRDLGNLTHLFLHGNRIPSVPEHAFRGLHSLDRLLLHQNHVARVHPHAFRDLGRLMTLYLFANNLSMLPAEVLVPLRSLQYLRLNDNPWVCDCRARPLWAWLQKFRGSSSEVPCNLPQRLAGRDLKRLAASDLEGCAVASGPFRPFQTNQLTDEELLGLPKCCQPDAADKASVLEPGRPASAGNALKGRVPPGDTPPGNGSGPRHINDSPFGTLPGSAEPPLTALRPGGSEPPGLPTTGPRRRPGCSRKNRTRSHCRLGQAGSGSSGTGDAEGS

T2: NgR2 (full-length, N-terminally myc-tagged rat NgR2) (rat, UniProt Q80WD1 30-390)
T2 construct: also called myc-NgR2[Ser30-Leu420]
T2 sequence: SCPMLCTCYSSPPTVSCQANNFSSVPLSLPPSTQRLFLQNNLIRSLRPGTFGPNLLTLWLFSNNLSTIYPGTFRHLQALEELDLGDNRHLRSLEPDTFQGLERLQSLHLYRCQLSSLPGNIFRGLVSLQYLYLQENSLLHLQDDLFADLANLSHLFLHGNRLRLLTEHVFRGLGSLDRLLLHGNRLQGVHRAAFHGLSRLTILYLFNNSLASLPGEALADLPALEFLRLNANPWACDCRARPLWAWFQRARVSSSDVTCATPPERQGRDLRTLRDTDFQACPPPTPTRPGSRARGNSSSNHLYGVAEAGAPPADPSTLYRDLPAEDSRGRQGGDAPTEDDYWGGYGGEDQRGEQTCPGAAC

T3: NgR3 (full-length, N-terminally myc-tagged rat NgR3) (rat, UniProt Q80WD0 24-424)
T3 construct: also called myc-NgR3[Gly24-Arg445]
T3 sequence: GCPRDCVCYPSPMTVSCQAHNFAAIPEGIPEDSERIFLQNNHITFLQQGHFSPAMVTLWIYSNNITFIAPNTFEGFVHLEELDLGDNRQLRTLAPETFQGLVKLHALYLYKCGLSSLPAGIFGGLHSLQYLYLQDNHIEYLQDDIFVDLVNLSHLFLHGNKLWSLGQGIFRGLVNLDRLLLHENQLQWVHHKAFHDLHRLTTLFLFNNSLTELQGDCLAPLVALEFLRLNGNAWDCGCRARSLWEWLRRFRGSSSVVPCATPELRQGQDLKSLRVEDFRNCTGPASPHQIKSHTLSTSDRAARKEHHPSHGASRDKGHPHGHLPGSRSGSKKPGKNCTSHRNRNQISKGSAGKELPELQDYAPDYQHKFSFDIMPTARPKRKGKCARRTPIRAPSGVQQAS

B1: AP-sNgR^C-term (LRRCT domain together with the unique domain of NgR, residues 261-445, AP fusion) (receptor)
chain: PWVCDCRARPLWAWLQKFRGSSSEVPCNLPQRLAGRDLKRLAASDLEGCAVASGPFRPFQTNQLTDEELLGLPKCCQPDAADKASVLEPGRPASAGNALKGRVPPGDTPPGNGSGPRHINDSPFGTLPGSAEPPLTALRPGGSEPPGLPTTGPRRRPGCSRKNRTRSHCRLGQAGSGSSGTGDAE
notes: Soluble, made in HEK293T cells; also called AP-sNgRCTu [Pro261-Glu445]; AP-NgR^C-term; not shown: alkaline phosphatase (AP) tag

Experiments:
[1] = target: NgR2 (full-length, N-terminally myc-tagged rat NgR2) (rat) (UniProt Q80WD1); experiment: MAG-Fc binding to NgR2 expressing COS-7 cells
[2] = target: NgR2 (full-length, N-terminally myc-tagged rat NgR2) (rat) (UniProt Q80WD1); experiment: Scatchard plot analysis, MAG-Fc on NgR2 expressing COS-7 cells
[3] = target: NgR2 (full-length, N-terminally myc-tagged rat NgR2) (rat) (UniProt Q80WD1); experiment: MAG-Fc binding to transfected COS-7 cells, direct comparison with NgR
[4] = target: NgR2 (full-length, N-terminally myc-tagged rat NgR2) (rat) (UniProt Q80WD1); experiment: estimated from the 5 fold comparison on COS-7 cells and the literature Kd of MAG-Fc/NgR
[5] = target: T1, NgR1 (Nogo receptor; full-length, …); experiment: AP-ligand binding to transfected COS-7 cells
[6] = target: T2, NgR2 (full-length, N-terminally …); experiment: AP-ligand binding to transfected COS-7 cells
[7] = target: T3, NgR3 (full-length, N-terminally …); experiment: AP-ligand binding to transfected COS-7 cells

Molecule | concentration at which binding saturates [1] [nM] | Kd [2] [nM] | fold tighter binding than to NgR [3] [fold] | Kd [4] [nM] | binding result [5] | binding result [6] | binding result [7]
MAG-Fc (MAG ectodomain fused to the Fc fragment of human immunoglobulin) (Fc fusion) | 5 to 10 | 2 | 5 | 1 to 2 |  |  | 
B1 |  |  |  |  | no binding | no binding | no binding
